Source: patent US20230416363A1 (KADMON, published 2023)

How the values were obtained:
[1] = molecular target: T1, hPD-1-his (human, UniProt Q15116 25-167); experiment: SPR, Exp. 3
T1 construct: domain: IgV domain; monomer in solution; biotin-labelled where captured by streptavidin; also called biotin-hPD-1-his

[2] = molecular target: T2, hPD-1-Fc (human, UniProt Q15116 25-167); experiment: SPR, Exp. 3
T2 construct: domain: IgV domain; also called human PD-1-Fc; not shown: human IgG1 Fc

[3] = molecular target: T3, human PD-1 expressed on cells (human, UniProt Q15116 25-288); experiment: flow cytometry, SEB-activated PBMC donor
T3 construct: whole, on cells

[4] = molecular target: T1, hPD-1-his; experiment: ELISA, PD-1-his on anti-his
[5] = molecular target: T3, human PD-1 expressed on cells; experiment: flow cytometry, activated PBMC donor two
[6] = molecular target: T3, human PD-1 expressed on cells; experiment: flow cytometry, SEB-activated PBMC donor two
[7] = molecular target: T3, human PD-1 expressed on cells; experiment: cell-based or functional assay
[8] = molecular target: T3, human PD-1 expressed on cells; experiment: cell-based or functional assay; remark: listed apart in the source
[9] = molecular target: T1, hPD-1-his; experiment: SPR, Exp. 4
[10] = molecular target: T1, hPD-1-his; experiment: SPR, Exp. 1
[11] = molecular target: T2, hPD-1-Fc; experiment: SPR, Exp. 1
[12] = molecular target: T3, human PD-1 expressed on cells; experiment: flow cytometry, activated PBMC donor FA
[13] = molecular target: T2, hPD-1-Fc; experiment: ELISA, hPD1-Fc coated
[14] = molecular target: T1, hPD-1-his; experiment: ELISA, hPD-1-his on anti-his
[15] = molecular target: T2, hPD-1-Fc; experiment: blocking ELISA, PD-1 to PD-L1
[16] = molecular target: T2, hPD-1-Fc; experiment: SPR, range over experiments
[17] = molecular target: T2, hPD-1-Fc; experiment: SPR Biacore T200, PD-1-Fc immobilised
[18] = molecular target: T2, hPD-1-Fc; experiment: blocking ELISA, PD-1 to PD-L2
[19] = molecular target: T1, hPD-1-his; experiment: ELISA, biotin-hPD-1-his on streptavidin
[20] = molecular target: T2, hPD-1-Fc; experiment: blocking ELISA, hPD-1-Fc to hPD-L1-Fc
[21] = molecular target: T3, human PD-1 expressed on cells; experiment: flow cytometry, hPD1-293 cells
[22] = molecular target: T2, hPD-1-Fc; experiment: ELISA, PD-1-Fc coated
[23] = molecular target: T3, human PD-1 expressed on cells; experiment: flow cytometry, hPD-1-293 cells
[24] = molecular target: T3, human PD-1 expressed on cells; experiment: flow cytometry, hPD1-Jurkat cells
[25] = molecular target: T1, hPD-1-his; experiment: SPR, Exp. 2
[26] = molecular target: T3, human PD-1 expressed on cells; experiment: flow cytometry, hPD-1-Jurkat cells
[27] = molecular target: T1, hPD-1-his; experiment: ELISA, biotin-PD-1-his on streptavidin
[28] = molecular target: T1, hPD-1-his; experiment: SPR Biacore T200, PD-1-his immobilised
[29] = molecular target: T3, human PD-1 expressed on cells; experiment: cell-based or functional assay; remark: listed apart in the source
[30] = molecular target: T1, hPD-1-his; experiment: ELISA, captured hPD-1-his
[31] = molecular target: T3, human PD-1 expressed on cells; experiment: flow cytometry, SEB-activated PBMC donor one
[32] = molecular target: T2, hPD-1-Fc; experiment: blocking ELISA, hPD-1-Fc to hPD-L1-Fc; remark: listed apart in the source
[33] = molecular target: T3, human PD-1 expressed on cells; experiment: cell-based or functional assay; remark: listed apart in the source
[34] = molecular target: T3, human PD-1 expressed on cells; experiment: flow cytometry, SEB-activated PBMC donor three
[35] = molecular target: T3, human PD-1 expressed on cells; experiment: flow cytometry, hPD1-293 cells; remark: listed apart in the source
[36] = molecular target: T2, hPD-1-Fc; experiment: ELISA, hPD-1-Fc coated

T3 sequence (Q15116 25-288): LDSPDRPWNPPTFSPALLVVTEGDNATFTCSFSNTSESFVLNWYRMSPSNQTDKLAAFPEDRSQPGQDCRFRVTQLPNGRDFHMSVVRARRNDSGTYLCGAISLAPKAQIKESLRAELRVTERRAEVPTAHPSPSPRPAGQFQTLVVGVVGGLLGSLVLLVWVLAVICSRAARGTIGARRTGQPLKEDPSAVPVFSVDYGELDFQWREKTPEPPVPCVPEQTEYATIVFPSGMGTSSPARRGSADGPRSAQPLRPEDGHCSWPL
T1 sequence (Q15116 other isoform, or with tags, fused parts or gaps limits assumed): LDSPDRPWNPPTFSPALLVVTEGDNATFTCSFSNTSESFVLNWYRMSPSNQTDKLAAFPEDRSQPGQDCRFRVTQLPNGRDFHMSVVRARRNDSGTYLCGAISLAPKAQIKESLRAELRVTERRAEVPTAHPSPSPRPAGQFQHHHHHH
T2 sequence (Q15116 25-167 limits assumed): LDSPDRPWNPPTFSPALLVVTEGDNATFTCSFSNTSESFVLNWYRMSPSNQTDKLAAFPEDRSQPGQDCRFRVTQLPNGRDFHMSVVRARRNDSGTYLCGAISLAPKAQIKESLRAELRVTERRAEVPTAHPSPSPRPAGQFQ

B1: 31B1 (antibody, V domains shown)
VH: QVQLVQSGAEVKKPGSSVKVSCKASGGTFSSSVISWVRQAPGQGLEWMGGIIPIFGTANYAQKFQGRVTITADESTSTAYMELSSLRSEDTAVYYCAREGLGCSGGSCYSGYYYGMDVWGQGTTVTVSS
VL: DIVMTQSPLSLPVTPGEPASISCRSSQSLLHSNGYNYLDWYLQKPGQSPQLLIYEASSLHSGVPDRFSGSGSGTDFTLKISRVEAEDVGVYYCMQGTHWPYTFGQGTKVEIK
notes: also called 780_38; 33B1 and 31B2 (apparent misprints)
Kd [1]: 0.353 nM
Kd [2]: < 0.01 nM
MFI, 5 nM [3]: 98.5 MFI
EC50 [4]: 0.139 nM
EC50 [5]: 0.025 nM
MFI at 25 nM [5]: 17.8 MFI
MFI, 5 nM [6]: 67.7 MFI
EC50, Promega blockade bioassay [7]: 0.139 µg/mL
Fold induction [7]: 6.48 fold
EC50, Promega blockade bioassay, Exp. 1 [8]: 0.168 µg/mL
EC50, Promega blockade bioassay, Exp. 2 [8]: 0.172 µg/mL
Fold induction at 12 µg/ml, Exp. 1 [8]: 7.44 fold
Fold induction at 12 µg/ml, Exp. 2 [8]: 8.4 fold
Kd [9]: < 0.019 nM
Kd [10]: < 0.036 nM
Kd [11]: < 0.014 nM
EC50 [12]: 0.049 nM
MFI at 25 nM [12]: 18.4 MFI
EC50 [13]: 0.167 nM
OD450 at 10 nM [13]: 0.974 OD450
EC50 [14]: 0.095 nM
OD450 at 10 nM [14]: 0.59 OD450
IC50 [15]: 2.65 nM
Inhibition, % at 5.56 nM [15]: 89.7%
Kd [16]: 0.01 to 0.02 nM
Kd [17]: 0.688 nM
IC50 [18]: 3.94 nM
Inhibition, % at 3.7 nM [18]: 41.4%
Inhibition, % at 100 nM [18]: 94.5%
EC50 [19]: 0.244 nM
OD450 at 10 nM [19]: 0.953 OD450
IC50 [20]: 2.15 nM
Inhibition % at 5.6 nM [20]: 90.2%
Inhibition % at 50 nM [20]: 91.4%
EC50 [21]: 0.077 nM
MFI at 5 nM [21]: 46.4 MFI
EC50 [22]: 0.114 nM
MFI, 5 nM [23]: 186 MFI
EC50 [24]: 0.084 nM
MFI at 5 nM [24]: 91.6 MFI
Kd [25]: < 0.01 nM
MFI, 5 nM [26]: 67 MFI
EC50 [27]: 0.104 nM
Kd [28]: 6.56 nM
EC50 averaged from two experiments, Promega blockade bioassay [29]: 0.168 µg/mL

B2: 23H9 (antibody, human IgG1, V domains shown)
VH: QVQLVQSGAEVKKPGSSVKVSCKASGGTFSSSVISWVRQAPGQGLEWMGGIIPIFGTANYAQKFQGRVTITADESTSTAYMELSSLRSEDTAVYYCAREGLGCSGGSCYSGYYYGMDVWGQGTTVTVSS
VL: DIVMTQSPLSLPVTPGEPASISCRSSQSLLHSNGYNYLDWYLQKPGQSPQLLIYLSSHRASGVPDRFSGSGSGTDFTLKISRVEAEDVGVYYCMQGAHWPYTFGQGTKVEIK
EC50 [30]: 0.35 nM
OD at 10 nM [30]: 1.25 OD450
EC50, Promega blockade bioassay [7]: 0.551 µg/mL
Fold induction [7]: 5.58 fold
EC50 [31]: 0.993 nM
MFI at 100 nM [31]: 26.2 MFI
IC50 [32]: 2.04 nM
Inhibition % (3.3 nM) [32]: 82.5%
Inhibition % (30 nM) [32]: 94.7%
EC50 [13]: 0.121 nM
OD450 at 10 nM [13]: 0.916 OD450
EC50 [14]: 0.238 nM
OD450 at 10 nM [14]: 0.406 OD450
EC 50, Promega PD-1/PD-L1 blockade bioassay [33]: 0.688 µg/mL
Fold of induction [33]: 4.42 fold
EC50 [34]: 0.829 nM
MFI at 100 nM [34]: 109 MFI
Kd [17]: 0.928 nM
EC50 [19]: 0.18 nM
OD450 at 10 nM [19]: 0.89 OD450
IC50 [20]: 1.27 nM
Inhibition % at 5.6 nM [20]: 88.6%
Inhibition % at 50 nM [20]: 90.4%
EC50 [21]: 0.33 nM
MFI at 5 nM [21]: 43 MFI
EC50 [35]: 2.53 nM
MFI at 68 nM [35]: 38.8 MFI
EC50 [24]: 0.42 nM
MFI at 5 nM [24]: 120 MFI
EC50 [36]: 0.151 nM
OD at 10 nM [36]: 1.75 OD450
Kd [28]: 4.91 nM
